From article PMC7135739
Like-named read-outs stand apart in the source and are kept apart here.

Experiments:
Assay in all cases: microtiter plate binding assay
[1] = biological target: Bovine cardiac myosin (bovine) (UniProt Q9BE39)
[2] = biological target: Bovine cardiac myosin (bovine) (UniProt Q9BE39); remark: listed apart in the source
[3] = biological target: Rabbit skeletal muscle myosin (rabbit) (UniProt Q28641)
Sequence of UniProt Q28641 (Q28641 whole entry, chain 1 of 3): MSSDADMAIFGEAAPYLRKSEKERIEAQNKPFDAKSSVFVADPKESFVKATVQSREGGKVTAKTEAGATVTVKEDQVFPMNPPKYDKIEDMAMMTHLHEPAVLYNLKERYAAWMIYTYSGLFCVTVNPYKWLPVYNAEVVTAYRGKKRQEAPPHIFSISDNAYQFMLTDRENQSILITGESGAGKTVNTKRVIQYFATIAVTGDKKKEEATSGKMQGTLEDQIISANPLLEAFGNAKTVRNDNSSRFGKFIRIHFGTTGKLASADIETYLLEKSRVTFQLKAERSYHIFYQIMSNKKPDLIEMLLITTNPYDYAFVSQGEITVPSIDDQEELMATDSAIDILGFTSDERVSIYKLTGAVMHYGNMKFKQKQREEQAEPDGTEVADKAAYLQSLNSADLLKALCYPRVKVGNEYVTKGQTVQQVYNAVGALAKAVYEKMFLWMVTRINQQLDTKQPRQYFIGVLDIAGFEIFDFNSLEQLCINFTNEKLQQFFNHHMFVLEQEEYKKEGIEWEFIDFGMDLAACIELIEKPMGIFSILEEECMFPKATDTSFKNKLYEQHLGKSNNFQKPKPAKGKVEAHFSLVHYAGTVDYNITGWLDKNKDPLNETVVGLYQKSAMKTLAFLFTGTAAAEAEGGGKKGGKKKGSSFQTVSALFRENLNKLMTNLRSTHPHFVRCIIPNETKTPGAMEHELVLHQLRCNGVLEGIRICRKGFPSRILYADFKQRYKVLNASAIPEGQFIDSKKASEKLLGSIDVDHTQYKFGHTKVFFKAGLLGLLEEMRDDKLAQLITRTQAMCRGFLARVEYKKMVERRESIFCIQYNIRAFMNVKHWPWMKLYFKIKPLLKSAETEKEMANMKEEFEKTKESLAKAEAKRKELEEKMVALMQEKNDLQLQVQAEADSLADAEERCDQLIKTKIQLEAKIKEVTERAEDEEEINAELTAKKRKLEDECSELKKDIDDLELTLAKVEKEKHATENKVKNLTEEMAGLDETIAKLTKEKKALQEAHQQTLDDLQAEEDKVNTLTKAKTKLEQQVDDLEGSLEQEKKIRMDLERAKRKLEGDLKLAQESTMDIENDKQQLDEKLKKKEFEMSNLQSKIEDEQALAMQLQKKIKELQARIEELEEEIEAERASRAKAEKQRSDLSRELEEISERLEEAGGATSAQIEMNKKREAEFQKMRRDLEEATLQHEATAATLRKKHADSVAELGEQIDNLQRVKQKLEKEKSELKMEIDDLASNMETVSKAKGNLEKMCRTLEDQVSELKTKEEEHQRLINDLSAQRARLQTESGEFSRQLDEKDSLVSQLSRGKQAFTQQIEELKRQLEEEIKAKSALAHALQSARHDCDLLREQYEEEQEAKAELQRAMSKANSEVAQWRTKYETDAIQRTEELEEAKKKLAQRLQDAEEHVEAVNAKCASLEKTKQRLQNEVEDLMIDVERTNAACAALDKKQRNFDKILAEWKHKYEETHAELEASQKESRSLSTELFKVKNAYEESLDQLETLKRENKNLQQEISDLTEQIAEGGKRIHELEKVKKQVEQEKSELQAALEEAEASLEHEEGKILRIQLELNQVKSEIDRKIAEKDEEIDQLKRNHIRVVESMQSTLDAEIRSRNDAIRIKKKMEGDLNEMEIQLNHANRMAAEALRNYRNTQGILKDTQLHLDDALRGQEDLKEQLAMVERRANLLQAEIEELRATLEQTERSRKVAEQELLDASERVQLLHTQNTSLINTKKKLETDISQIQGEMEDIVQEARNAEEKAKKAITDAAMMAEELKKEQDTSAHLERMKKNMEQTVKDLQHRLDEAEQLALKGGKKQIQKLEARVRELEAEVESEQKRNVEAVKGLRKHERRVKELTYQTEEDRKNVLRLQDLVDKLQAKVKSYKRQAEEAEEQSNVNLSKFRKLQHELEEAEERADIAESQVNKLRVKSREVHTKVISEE
Sequence of UniProt Q28641 (P02602 2-192, chain 2 of 3, further chain): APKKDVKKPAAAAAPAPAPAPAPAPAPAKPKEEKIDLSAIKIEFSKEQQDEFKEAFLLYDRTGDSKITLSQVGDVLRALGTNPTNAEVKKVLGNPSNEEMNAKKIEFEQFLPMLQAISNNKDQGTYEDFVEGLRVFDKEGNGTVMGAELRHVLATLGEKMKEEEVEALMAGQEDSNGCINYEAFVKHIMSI
Sequence of UniProt Q28641 (P02608 2-170, chain 3 of 3, further chain): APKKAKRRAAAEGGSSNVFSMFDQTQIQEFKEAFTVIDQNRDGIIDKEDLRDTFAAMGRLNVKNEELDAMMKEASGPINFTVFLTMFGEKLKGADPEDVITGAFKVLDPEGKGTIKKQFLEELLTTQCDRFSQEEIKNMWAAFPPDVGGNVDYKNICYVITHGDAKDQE

- Kd [1]: 21 nM
- Kd [2]: 108 nM
- Kd [3]: 80.4 nM
Substance: Human factor Xa (enzyme)
